Test results taken from patent US20140314744A1 (NEOTOPE BIOSCIENCES, published 2014).

Experiments:
[1] = target: T1, Murine MCAM domain 1 (Ig1) with human IgG Fc tag (mouse, UniProt Q8R2Y2 24-131, limits assumed); test: ForteBio Octet Red, domains on anti-human IgG Fc biosensors
T1 construct: domain: domain 1 (Ig1); also called MCAM Fc domain 1; not shown: human IgG Fc tag
T1 sequence (looked up): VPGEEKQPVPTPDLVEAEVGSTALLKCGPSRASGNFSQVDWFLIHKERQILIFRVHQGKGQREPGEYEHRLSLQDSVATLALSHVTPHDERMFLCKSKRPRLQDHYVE
Source text: (§1) The following protocol was used: ForteBio Domain Mapping Protocol. ForteBio anti-human IgG Fc biosensors were used to immobilize various mouse MCAMhFc domains including full length mouse MCAMhFc protein on to biosensor surface. These sensors were dipped into either clone 15 or 17 MCAM specific antibody for detection of binding to these domains or full length protein. After loading these samples into a black 96 well plate, the Octet Red was programmed as follows: 60 seconds for baseline #1; 180 seconds for loading various domains; 60 seconds for baseline #2; 180 seconds for association of antibody to domain; and 240 seconds for dissociation of antibody from domain.

[2] = target: T2, Murine MCAM domain 1 and 2 (Ig1-2A) with human IgG Fc tag (mouse, UniProt Q8R2Y2 24-244, limits assumed); test: as above
T2 construct: domain: domain 1 and 2 (Ig1-2A); also called MCAM Fc domains 1 and 2; not shown: human IgG Fc tag
T2 sequence (looked up): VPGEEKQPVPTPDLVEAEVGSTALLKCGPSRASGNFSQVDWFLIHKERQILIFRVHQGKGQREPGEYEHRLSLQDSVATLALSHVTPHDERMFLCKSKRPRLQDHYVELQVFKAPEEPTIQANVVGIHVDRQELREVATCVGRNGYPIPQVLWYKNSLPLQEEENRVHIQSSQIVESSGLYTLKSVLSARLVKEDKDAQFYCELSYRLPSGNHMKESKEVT
Source text: as §1

[3] = target: T3, mouse MCAM (full length, on transfected CHO cells) (mouse, UniProt Q8R2Y2 24-648); test: flow cytometry on MCAM transfected cells mixed with CFSE-labelled untransfected cells
T3 construct: whole, on cells; also called murine MCAM; mouse MCAM transfected CHO cells
T3 sequence (looked up): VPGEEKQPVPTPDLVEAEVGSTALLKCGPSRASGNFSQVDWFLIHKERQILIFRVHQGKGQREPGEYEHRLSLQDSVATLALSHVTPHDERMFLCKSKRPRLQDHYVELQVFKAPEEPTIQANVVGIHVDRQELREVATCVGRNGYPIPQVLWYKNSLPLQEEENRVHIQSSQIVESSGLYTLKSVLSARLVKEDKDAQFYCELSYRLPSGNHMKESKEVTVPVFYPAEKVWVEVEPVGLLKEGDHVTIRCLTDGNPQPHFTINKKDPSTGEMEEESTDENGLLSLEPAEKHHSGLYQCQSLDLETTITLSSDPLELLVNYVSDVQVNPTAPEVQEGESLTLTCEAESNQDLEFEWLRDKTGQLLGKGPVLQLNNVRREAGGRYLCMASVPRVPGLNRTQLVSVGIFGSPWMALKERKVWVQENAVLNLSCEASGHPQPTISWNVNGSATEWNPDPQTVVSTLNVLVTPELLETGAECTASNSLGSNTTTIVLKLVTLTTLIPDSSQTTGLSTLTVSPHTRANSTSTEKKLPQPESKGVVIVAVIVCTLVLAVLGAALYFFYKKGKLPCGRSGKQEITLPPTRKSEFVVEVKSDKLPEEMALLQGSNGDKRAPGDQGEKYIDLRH
Procedure: MCAM-Fc was generated by fusing the extracellular domain of murine MCAM to human IgG and produced in CHO cells using standard techniques. Lou/M rats were immunized with 100 μg of MCAM-Fc protein in CFA (1:1 volume). Rats were boosted two times at two week intervals with MCAM-Fc protein in incomplete Freund's adjuvant (IFA) (1:1 volume). Hybridomas were generated from immunized rats using standard protocols and clones were selected by Clonepix. CHO cells were transfected with the full length murine MCAM gene and selected for stable expression using neomycin and standard techniques. Parental CHO cells (MCAM negative) were fluorescently labeled with carboxyfluorescein succinimidyl ester (CFSE) using standard techniques and mixed at a 1:1 ratio with unlabeled MCAM transfected CHO cells. Hybridoma supernatants were incubated with this mixture of cells for 30 minutes and binding of potential MCAM specific antibodies was detected with a fluorescently labeled anti-rat secondary antibody (Jackson Immuno) by flow cytometry.
(§2) Monoclonal antibodies against mouse MCAM were generated as described in Materials and Methods above. The specific binding between the monoclonal antibody and MCAM was confirmed by assessing the monoclonal antibody's ability to bind to cells transfected with either mouse or human MCAM. For this, untransfected cells were labeled with carboxyfluorescein succinimidyl ester (CFSE) and mixed with unlabeled MCAM transfected cells. Untransfected cells (in blue) could therefore be differentiated.

[4] = target: T4, human MCAM (on transfected cells) (human, UniProt P43121 24-646); test: flow cytometry on human MCAM transfected cells mixed with CFSE-labelled untransfected cells
T4 construct: Cells transfected with human MCAM; also called CD146; MUC18
T4 chain: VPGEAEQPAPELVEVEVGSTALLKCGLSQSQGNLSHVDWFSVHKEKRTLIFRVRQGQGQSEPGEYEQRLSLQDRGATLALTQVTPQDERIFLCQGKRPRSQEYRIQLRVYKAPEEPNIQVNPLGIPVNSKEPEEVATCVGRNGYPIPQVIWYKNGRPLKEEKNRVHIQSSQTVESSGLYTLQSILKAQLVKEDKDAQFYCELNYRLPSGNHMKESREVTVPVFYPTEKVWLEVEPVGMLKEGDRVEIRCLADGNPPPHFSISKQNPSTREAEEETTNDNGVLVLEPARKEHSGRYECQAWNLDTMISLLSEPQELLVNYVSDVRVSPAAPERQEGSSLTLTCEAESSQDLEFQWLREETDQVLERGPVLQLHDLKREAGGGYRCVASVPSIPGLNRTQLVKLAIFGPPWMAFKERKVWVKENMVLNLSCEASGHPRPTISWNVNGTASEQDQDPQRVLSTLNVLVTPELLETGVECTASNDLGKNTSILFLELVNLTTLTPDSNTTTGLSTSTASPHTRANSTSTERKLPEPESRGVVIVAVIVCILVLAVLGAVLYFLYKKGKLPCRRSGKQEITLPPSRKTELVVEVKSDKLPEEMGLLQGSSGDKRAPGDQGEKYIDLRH
Source text: as §2

Ig2 domain = target: T5, Ig2 domain (mouse, UniProt Q8R2Y2); test: ForteBio Octet Red, anti-human IgG Fc biosensor loaded with the Ig2 domain hFc protein, dipped into clone 15 or SP2 media
T5 construct: immunoglobulin domain 2 alone; also called Murine MCAM domain 2 (Ig2)
T5 sequence (Fc fusion chain, looked up): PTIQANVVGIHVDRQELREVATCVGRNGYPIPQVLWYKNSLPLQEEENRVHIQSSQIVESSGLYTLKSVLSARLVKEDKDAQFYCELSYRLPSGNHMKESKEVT
Source text: as §1
(§3) For FIG. 10A-B, clones 15 and 17 were tested against the following protein samples (all have human IgG Fc tag): […]

[5] = target: T6, murine MCAM-Fc (extracellular domain of murine MCAM fused to human IgG) (mouse, UniProt Q8R2Y2 24-563); test: ForteBio Octet Red, anti-human IgG Fc biosensor loaded with mouse MCAMhFc (5 ug/ml), dipped into clone 15 (5 ug/ml) or SP2 media
T6 construct: extracellular domain; Produced in CHO cells; also called mouse MCAM-Fc protein; full length mouse MCAMhFc protein; not shown: human IgG (Fc) part
T6 sequence (looked up): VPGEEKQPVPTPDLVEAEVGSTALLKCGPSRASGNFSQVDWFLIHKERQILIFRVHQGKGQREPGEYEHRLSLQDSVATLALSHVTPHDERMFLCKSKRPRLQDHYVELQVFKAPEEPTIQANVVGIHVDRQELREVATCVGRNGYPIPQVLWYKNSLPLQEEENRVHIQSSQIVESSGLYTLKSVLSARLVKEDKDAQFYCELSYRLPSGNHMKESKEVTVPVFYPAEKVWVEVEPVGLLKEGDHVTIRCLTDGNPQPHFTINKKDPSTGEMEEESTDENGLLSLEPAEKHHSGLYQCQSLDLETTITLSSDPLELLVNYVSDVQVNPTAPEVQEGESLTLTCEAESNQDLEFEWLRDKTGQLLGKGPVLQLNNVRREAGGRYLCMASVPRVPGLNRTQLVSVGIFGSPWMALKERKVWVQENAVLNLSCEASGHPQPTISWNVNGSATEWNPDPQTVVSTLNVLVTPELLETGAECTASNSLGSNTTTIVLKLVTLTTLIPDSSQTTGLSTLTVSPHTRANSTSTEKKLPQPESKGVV
Source text: as §1, §3

[6] = target: T7, Recombinant human laminin-α4 (R&D systems) (human, UniProt Q16363-2 826-1816); test: SPR (Biacore T200)
T7 construct: also called laminin 4A chain; laminin A4 (α4) chain
T7 sequence (looked up): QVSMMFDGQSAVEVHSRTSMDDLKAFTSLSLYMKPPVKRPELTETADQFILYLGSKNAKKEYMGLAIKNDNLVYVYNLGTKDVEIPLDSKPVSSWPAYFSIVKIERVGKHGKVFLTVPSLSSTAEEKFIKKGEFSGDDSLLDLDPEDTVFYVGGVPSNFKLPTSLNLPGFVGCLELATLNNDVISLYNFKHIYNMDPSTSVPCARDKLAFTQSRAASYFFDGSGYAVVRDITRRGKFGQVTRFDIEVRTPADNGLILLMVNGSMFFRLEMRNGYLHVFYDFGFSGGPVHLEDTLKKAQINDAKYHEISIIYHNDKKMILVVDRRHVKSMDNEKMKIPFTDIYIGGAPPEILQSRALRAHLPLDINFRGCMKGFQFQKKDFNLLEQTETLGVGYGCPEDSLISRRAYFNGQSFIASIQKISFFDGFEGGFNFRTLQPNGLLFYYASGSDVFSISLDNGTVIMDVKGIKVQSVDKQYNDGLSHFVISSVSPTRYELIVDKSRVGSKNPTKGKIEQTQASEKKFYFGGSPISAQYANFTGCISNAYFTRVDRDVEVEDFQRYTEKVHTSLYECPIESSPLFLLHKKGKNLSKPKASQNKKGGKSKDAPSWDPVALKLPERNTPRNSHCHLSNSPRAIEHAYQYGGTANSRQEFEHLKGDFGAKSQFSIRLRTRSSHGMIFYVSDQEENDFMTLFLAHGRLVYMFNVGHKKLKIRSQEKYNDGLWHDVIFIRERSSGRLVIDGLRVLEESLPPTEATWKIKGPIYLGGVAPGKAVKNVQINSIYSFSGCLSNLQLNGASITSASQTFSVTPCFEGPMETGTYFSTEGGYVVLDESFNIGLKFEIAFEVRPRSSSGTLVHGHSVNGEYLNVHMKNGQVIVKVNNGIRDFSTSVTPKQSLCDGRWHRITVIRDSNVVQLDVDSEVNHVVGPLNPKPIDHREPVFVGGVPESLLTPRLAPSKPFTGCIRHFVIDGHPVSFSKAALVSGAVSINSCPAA

[7] = target: T8, Recombinant human laminin 511 (Biolamina) (human, UniProt O15230 36-3695; P07942 22-1786; P11047 34-1609); test: SPR (Biacore T200)
T8 construct: Trimer α5β1γ1, bought; negative control

| Binder | binding result [1] | binding result [2] | binding result [3] | binding result [4] | binding result (Ig2 domain) | binding result [5] | binding result [6] | binding result [7] |
| --- | --- | --- | --- | --- | --- | --- | --- | --- |
| clone 15 monoclonal antibody (rat anti-MCAM) (antibody, V domains shown, Rat monoclonal from a hybridoma; also called anti-MCAM antibody (clone 15)) VH: EVRLVESGGGLVQPGKSMKLSCVASGFKFSNYYMSWVRQAPAKGLEWVASISDGGGDTFCRDLVKGRFTISRDNAKSTLYLQMDSLRPEDTATYYCARRGAAMGGVMDAWGQGTSVTVSS VL: DIVMTQSPSSLAVSAGETVSIHCKSSQSLLYSGTQKNYLAWFQQKPGQSPKLLIFWASTRQSGVPDRFIGRGSGTDFTLTISGVQAEDLAIYYCQQYYDTLTDTFGAGTKLELKR | no binding (tested: 5 ug/ml) | binds | binds | no binding | no binding (tested: 5 ug/ml) | binds | – | – |
| MCAM Fc domain 1 alone (Example 9) (Fc fusion, not shown: Fc tag; not described) PRVAGVPGEAEQPAPELVEVEVGSTALLKCGLSQSQGNLSHVDWFSVHKEKRTLIFRVRQGQGQSEPGEYEQRLSLQDRGATLALTQVTPQDERIFLCQGKRPRSQEYRIQ | – | – | – | – | – | – | no binding (tested: 5-175 nM) | no binding (tested: 5-175 nM) |
